The labels stand for the following.
B1: Homeobox protein SIX3, residues 212 to 262; numbered along this chain, O95343 (parent)
chain: CFKERTRSLLREWYLQDPYPNPSKKRELAQATGLTPTQVGNWFKNRRQRDR

± gives the uncertainty stated by the source.

Variants of B1 are the subject of this data set. As to the kind of experiment: abundance fitness (aPCA) (normalised: wild type 0, dead -1); higher = more abundant; growth selection in yeast, the domain comes from the species named. The settings on record: Homo sapiens.
Turning to CFKERTRSLLREWYLQDPYPNPSKKRELAQATGLTPTQVGNWFKNRRFRDR, the abundance fitness is -0.46 ± 0.18.
Consider CFKERTRSLLREWYLQDPYPNPSKKRELAQATGLTPTQVGNWFKNRRLRDR, for which the abundance fitness was -0.225 ± 0.057.
Then CFKERTRSLLREWYLQDPYPNPSKKRELAQATGLTPTQVGNWFKNRRTRDR, with -0.242 ± 0.082; and CFKERTRSLLREWYLQDPYPNPSKKRELAQATGLTPTQVGNWFKNRRSRDR, with -0.124 ± 0.051.
Then CFKERTRSLLREWYLQDPYPNPSKKRELAQATGLTPTQVGNWFKNRRKRDR, with 0.177 ± 0.087.
Then CFKERTRSLLREWYLQDPYPNPSKKRELAQATGLTPTQVGNWFKNRRWRDR, with -0.117 ± 0.08; and CFKERTRSLLREWYLQDPYPNPSKKRELAQATGLTPTQVGNWFKNRRVRDR, with -0.545 ± 0.086.
For the variant CFKERTRSLLREWYLQDPYPNPSKKRELAQATGLTPTQVGNWFKNRRMRDR, the abundance fitness was -0.431 ± 0.077.
Then CFKERTRSLLREWYLQDPYPNPSKKRELAQATGLTPTQVGNWFKNRRCRDR, with -0.147 ± 0.095; and CFKERTRSLLREWYLQDPYPNPSKKRELAQATGLTPTQVGNWFKNRRQSDR, with -0.279 ± 0.083; and CFKERTRSLLREWYLQDPYPNPSKKRELAQATGLTPTQVGNWFKNRRQQDR, with 0.018 ± 0.089.
Then CFKERTRSLLREWYLQDPYPNPSKKRELAQATGLTPTQVGNWFKNRRQIDR, with -0.216 ± 0.14; and CFKERTRSLLREWYLQDPYPNPSKKRELAQATGLTPTQVGNWFKNRRQFDR, with -0.373 ± 0.16; and CFKERTRSLLREWYLQDPYPNPSKKRELAQATGLTPTQVGNWFKNRRQDDR, with -0.033 ± 0.11.
For the variant CFKERTRSLLREWYLQDPYPNPSKKRELAQATGLTPTQVGNWFKNRRQWDR, the abundance fitness is -0.462 ± 0.07.
Then CFKERTRSLLREWYLQDPYPNPSKKRELAQATGLTPTQVGNWFKNRRQMDR, with -0.247 ± 0.058.
Then CFKERTRSLLREWYLQDPYPNPSKKRELAQATGLTPTQVGNWFKNRRQKDR, with 0.025 ± 0.073; and CFKERTRSLLREWYLQDPYPNPSKKRELAQATGLTPTQVGNWFKNRRQTDR, with -0.18 ± 0.082.
Then CFKERTRSLLREWYLQDPYPNPSKKRELAQATGLTPTQVGNWFKNRRQADR, with -0.222 ± 0.079.
CFKERTRSLLREWYLQDPYPNPSKKRELAQATGLTPTQVGNWFKNRRQVDR: the abundance fitness is -0.153 ± 0.082.
Then CFKERTRSLLREWYLQDPYPNPSKKRELAQATGLTPTQVGNWFKNRRQHDR, with -0.371 ± 0.22; and CFKERTRSLLREWYLQDPYPNPSKKRELAQATGLTPTQVGNWFKNRRQCDR, with -0.539 ± 0.1; and CFKERTRSLLREWYLQDPYPNPSKKRELAQATGLTPTQVGNWFKNRRQLDR, with -0.388 ± 0.057.
Then CFKERTRSLLREWYLQDPYPNPSKKRELAQATGLTPTQVGNWFKNRRQYDR, with -0.074 ± 0.12; and CFKERTRSLLREWYLQDPYPNPSKKRELAQATGLTPTQVGNWFKNRRQEDR, with 0 ± 0.042.
Consider CFKERTRSLLREWYLQDPYPNPSKKRELAQATGLTPTQVGNWFKNRRQGDR, for which the abundance fitness was -0.373 ± 0.051.
Then CFKERTRSLLREWYLQDPYPNPSKKRELAQATGLTPTQVGNWFKNRRQPDR, with -0.844 ± 0.23; and CFKERTRSLLREWYLQDPYPNPSKKRELAQATGLTPTQVGNWFKNRRQNDR, with -0.221 ± 0.19.
CFKERTRSLLREWYLQDPYPNPSKKRELAQATGLTPTQVGNWFKNRRQRDA: the abundance fitness was -0.031 ± 0.11.
Then CFKERTRSLLREWYLQDPYPNPSKKRELAQATGLTPTQVGNWFKNRRQRDG, with -0.375 ± 0.076; and CFKERTRSLLREWYLQDPYPNPSKKRELAQATGLTPTQVGNWFKNRRQRDN, with -0.267 ± 0.26; and CFKERTRSLLREWYLQDPYPNPSKKRELAQATGLTPTQVGNWFKNRRQRDW, with -0.309 ± 0.14.
Then CFKERTRSLLREWYLQDPYPNPSKKRELAQATGLTPTQVGNWFKNRRQRDV, with -0.441 ± 0.18; and CFKERTRSLLREWYLQDPYPNPSKKRELAQATGLTPTQVGNWFKNRRQRDD, with 0.246 ± 0.16.
Then CFKERTRSLLREWYLQDPYPNPSKKRELAQATGLTPTQVGNWFKNRRQRDF, with -0.18 ± 0.33; and CFKERTRSLLREWYLQDPYPNPSKKRELAQATGLTPTQVGNWFKNRRQRDE, with -0.155 ± 0.21.
As for CFKERTRSLLREWYLQDPYPNPSKKRELAQATGLTPTQVGNWFKNRRQRQR, the abundance fitness is -0.276 ± 0.065.
Then CFKERTRSLLREWYLQDPYPNPSKKRELAQATGLTPTQVGNWFKNRRQRGR, with -0.609 ± 0.047; and CFKERTRSLLREWYLQDPYPNPSKKRELAQATGLTPTQVGNWFKNRRQRVR, with -0.699 ± 0.095; and CFKERTRSLLREWYLQDPYPNPSKKRELAQATGLTPTQVGNWFKNRRQRWR, with -1.17 ± 0.4.
For the variant CFKERTRSLLREWYLQDPYPNPSKKRELAQATGLTPTQVGNWFKNRRQRHR, the abundance fitness is -0.515 ± 0.14.
Regarding CFKERTRSLLREWYLQDPYPNPSKKRELAQATGLTPTQVGNWFKNRRQRRR, the abundance fitness was -1.08 ± 0.21.
For the variant CFKERTRSLLREWYLQDPYPNPSKKRELAQATGLTPTQVGNWFKNRRQRSR, the abundance fitness was -0.491 ± 0.074.
Then CFKERTRSLLREWYLQDPYPNPSKKRELAQATGLTPTQVGNWFKNRRQRMR, with -0.799 ± 0.25; and CFKERTRSLLREWYLQDPYPNPSKKRELAQATGLTPTQVGNWFKNRRQRNR, with -0.747 ± 0.19.
Take CFKERTRSLLREWYLQDPYPNPSKKRELAQATGLTPTQVGNWFKNRRQRTR: the abundance fitness was -0.582 ± 0.12.
Then CFKERTRSLLREWYLQDPYPNPSKKRELAQATGLTPTQVGNWFKNRRQRIR, with -0.737 ± 0.11.
Then CFKERTRSLLREWYLQDPYPNPSKKRELAQATGLTPTQVGNWFKNRRQRCR, with -0.678 ± 0.064.
Then CFKERTRSLLREWYLQDPYPNPSKKRELAQATGLTPTQVGNWFKNRRQRYR, with -0.6 ± 0.17.
On to CFKERTRSLLREWYLQDPYPNPSKKRELAQATGLTPTQVGNWFKNRRQRLR, for which the abundance fitness was -0.64 ± 0.057.
Then CFKERTRSLLREWYLQDPYPNPSKKRELAQATGLTPTQVGNWFKNRRQRER, with 0.189 ± 0.1; and CFKERTRSLLREWYLQDPYPNPSKKRELAQATGLTPTQVGNWFKNRRQRAR, with -0.579 ± 0.11.

The values are drawn from the Human Domainome abundance scans (Beltran et al. 2025).
